Test results taken from publication PMC7583906, “Functional Recovery of a GCDH Variant Associated to Severe Deflavinylation—Molecular Insights into Potential Beneficial Effects of Riboflavin Supplementation in Glutaric Aciduria-Type I Patients” (International Journal of Molecular Sciences, 2020).
Where “and” joins values, the source holds several entries; their conditions need not be identical. Equal values may be shown once.

Biological target: the molecule itself
Test: SEC; Superdex 200 10/300 GL, 10 mM HEPES pH 7.8, 150 mM NaCl, typically 0.5 mg applied; holoprotein (FAD bound) as purified; Gaussian deconvolution of the profile

Protein	stoichiometry N
glutaryl-coenzyme A (CoA) dehydrogenase, wild-type (GCDH-WT) (enzyme, human, human glutaryl-CoA dehydrogenase (GCDH), recombinant; source: E. coli BL21 (DE3), soluble extract incubated overnight with excess FAD, purified (HisTrap HP)) EFDWQDPLVLEEQLTTDEILIRDTFRTYCQERLMPRILLANRNEVFHREIISEMGELGVLGPTIKGYGCAGVSSVAYGLLARELERVDSGYRSAMSVQSSLVMHPIYAYGSEEQRQKYLPQLAKGELLGCFGLTEPNSGSDPSSMETRAHYNSSNKSYTLNGTKTWITNSPMADLFVVWARCEDGCIRGFLLEKGMRGLSAPRIQGKFSLRASATGMIIMDGVEVPEENVLPGASSLGGPFGCLNNARYGIAWGVLGASEFCLHTARQYALDRMQFGVPLARNQLIQKKLADMLTEITLGLHACLQLGRLKDQDKAAPEMVSLLKRNNCGKALDIARQARDMLGGNGISDEYHVIRHAMNLEAVNTYEGTHDIHALILGRAITGIQAFTASK	4
GCDH-p.Val400Met clinical variant (enzyme, human, human glutaryl-CoA dehydrogenase (GCDH), disease variant p.Val400Met of glutaric aciduria type I, recombinant; The assays tell the states apart; also called holo GCDH-p.Val400Met; apo GCDH-p.Val400Met; source: E. coli BL21 (DE3), purified (HisTrap HP); holo form from soluble extract incubated overnight with excess FAD, apo form without the FAD incubation) EFDWQDPLVLEEQLTTDEILIRDTFRTYCQERLMPRILLANRNEVFHREIISEMGELGVLGPTIKGYGCAGVSSVAYGLLARELERVDSGYRSAMSVQSSLVMHPIYAYGSEEQRQKYLPQLAKGELLGCFGLTEPNSGSDPSSMETRAHYNSSNKSYTLNGTKTWITNSPMADLFVVWARCEDGCIRGFLLEKGMRGLSAPRIQGKFSLRASATGMIIMDGVEVPEENVLPGASSLGGPFGCLNNARYGIAWGVLGASEFCLHTARQYALDRMQFGVPLARNQLIQKKLADMLTEITLGLHACLQLGRLKDQDKAAPEMVSLLKRNNCGKALDIARQARDMLGGNGISDEYHMIRHAMNLEAVNTYEGTHDIHALILGRAITGIQAFTASK	4 and 2
